Tested on: human Oct-1 E30D/M33L (rodent-like);VP16ΔC;HCF-1N380 (beta-propeller domain) (Homo sapiens;HSV-1;Homo sapiens)
Assay: EMSA
Settings: 10 mM Hepes pH 7.9, 75 mM KCl, 1 mM EDTA, 10 mM DTT, 1 µg poly-dI-dC, up to 4 µl reticulocyte lysate, room temperature 20 min; 4% native gel in 1x …

For ICP0 (OCTA+)TAATGARAT probe, which binding signal (fold reduction of VIC vs wild type Oct-1) is on record?
Its binding signal (fold reduction of VIC vs wild type Oct-1) is over 100.
